Biological target: Trypanosoma brucei enolase (Trypanosoma brucei)
Assay: SEC

Substance Trypanosoma brucei enolase (enzyme) has a stoichiometry N of 2.
